# Assay results reported in patent US20140072563A1 (Regeneron, published 2014).
# Substitutions are numbered along the chain they refer to. Numbers in names are those of the source.
# T1: ErbB3-mFc (human)
# T1 construct: Dimeric soluble ErbB3; also called hErbB3.mFc
# T1 chain: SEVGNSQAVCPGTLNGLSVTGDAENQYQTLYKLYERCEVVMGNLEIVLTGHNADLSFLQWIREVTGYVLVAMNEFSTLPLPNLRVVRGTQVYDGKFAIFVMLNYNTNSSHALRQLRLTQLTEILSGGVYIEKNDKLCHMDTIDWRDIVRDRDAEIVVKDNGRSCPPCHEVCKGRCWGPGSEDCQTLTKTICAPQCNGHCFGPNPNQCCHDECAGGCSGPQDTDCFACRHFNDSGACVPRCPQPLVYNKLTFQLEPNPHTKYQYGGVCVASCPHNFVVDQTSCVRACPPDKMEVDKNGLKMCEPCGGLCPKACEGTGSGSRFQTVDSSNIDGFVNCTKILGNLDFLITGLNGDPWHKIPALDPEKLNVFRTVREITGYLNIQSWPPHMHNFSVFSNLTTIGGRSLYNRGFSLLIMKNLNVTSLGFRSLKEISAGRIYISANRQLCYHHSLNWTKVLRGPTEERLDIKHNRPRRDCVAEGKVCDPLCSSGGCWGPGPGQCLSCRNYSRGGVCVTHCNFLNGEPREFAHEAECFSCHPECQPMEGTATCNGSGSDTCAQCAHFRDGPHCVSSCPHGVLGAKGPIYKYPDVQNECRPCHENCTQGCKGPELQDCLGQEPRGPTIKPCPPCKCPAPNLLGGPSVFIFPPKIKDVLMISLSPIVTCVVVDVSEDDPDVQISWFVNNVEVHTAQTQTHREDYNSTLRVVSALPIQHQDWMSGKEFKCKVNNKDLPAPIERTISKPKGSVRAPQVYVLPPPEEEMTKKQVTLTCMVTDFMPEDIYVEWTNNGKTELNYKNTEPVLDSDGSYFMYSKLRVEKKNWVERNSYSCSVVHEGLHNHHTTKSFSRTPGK
# T2: hErbB3.mFc (soluble dimeric human ErbB3 extracellular domain fused to mouse Fc) (human)
# T2 construct: called dimeric
# T2 chain: T1 chain
# B1: H4H2084P (antibody, human IgG4, V domains shown)
# VH: QVQLVESGGGVVQSGKSLRLSCVASGFTFSNYGMHWVRQTPGKGLEWVARIWFDGTNKYYTDSVKGRFTLSRDSSKNTLYLQMNSLRAEDTAVYFCAREESLELDHYVMDVWGQGTTVTVSS
# VL: AIQMTQSPSSLSASVGDRVTITCRASQDIRDDLGWFQQKPGKAPNLLIYAASSLQSGVPSRFSGSGSGTDFTLTISSLQPEDFATYYCLQDYNYPLTFGGGTKVEIKR
# notes: Human IgG4 Fc (prefix H4H)
# B2: H4H1819N (antibody, human IgG4, V domains shown)
# VH: EVQLVESGGGVVRPGGSLRLSCAASGFTFDDYAMHWVRQAPGKGLEWVAGISWNSGSIDYADSVKGRFTISRDNAKNSLYLQMNSLRAGDTALYYCAKDILDLDYYGLDVWGQGTTVTVSS
# VL: DIQMTQSPSSLSASVGDRVTITCRASQDISSYLAWYQQKPGKVPNLLIYDASSLQSGVPSRFSGSGSGTDFTLTLSSLQPEDFASYYCQNYNSAPYTFGQGTKLEIK
# notes: Human IgG4 Fc (prefix H4H)
# B3: H4H2092P (antibody, human IgG4, V domains shown)
# VH: EVQLVESGGGVVRPGGSLRLSCAASGFTFEDYGMNWVRQVPGKGLEWVSGTNWNGGITGYTGSVKGRFTISRDNAKNSLYLQMNSLRAEDTALYHCARDSGDQDAFDIWGQGTMVTVSS
# VL: DIQLTQSPSFLSASVGDRVTITCWASQDISSYLAWYQQKPGKAPKLLIYAASTFQSGVPSRFSGSGSGTEFTLTISNLQPEDFATYYCQQLDSYPLSFGGGTKVEIKR
# notes: Human IgG4 Fc (prefix H4H)
# B4: H4H2094P (antibody, human IgG4, V domains shown)
# VH: EVQLVESGGGLVQPGGSLRLSCAASGFTFSSYDMHWVRQATGKGLEWVSAIGPAGDTYYPVSAMGRFTISRDDAKNSLYLQMNSLRAGDTAVYYCAREGVTIRPDDYFGLDVWGQGTTVTVSA
# VL: B3 VL with D28G, S31D, Q38K, K45Q, S52T, F54L, N77S, D92N, S93T, S97T
# notes: Human IgG4 Fc (prefix H4H)
# B5: H4H2102P (antibody, human IgG4, V domains shown)
# VH: EVQLVESGGGLVQPGGSLRLSCAASGFTFSNYDIHWVRQATGKGLEWVSAIGPAGDTYYSDSVKGRFTISREDAKNSLYLQMSSLRAGDTAVYYCASEGIAVRPDDYYGMDVWGQGTTVTVSA
# VL: B3 VL with S30T, Q38K, F54L, N77S, T85A, D92N, S97T, E105D
# notes: Human IgG4 Fc (prefix H4H)
# B6: H4H2111P (antibody, human IgG4, V domains shown)
# VH: QVQLVESGGGVVQPGRSLRLSCAASGFTFNNYGMHWVRQAPGKGLAWVAVMWYSESHKYYADSVKGRFTISRDNSKNTLYLEMNSLRVEDTAIYYCARDLGDPDAFDIWGQGTMVTVSS
# VL: B3 VL with D28G, A50G, F54L, N77S, D92N, S97T
# notes: Human IgG4 Fc (prefix H4H)
# B7: H4H2108P (antibody, human IgG4, V domains shown)
# VH: EVQLLESGGDLVQPGGSLRLSCATSGFSFSSDAMNWVRQAPGKGLEWVSGISGSGGNTYYADSVKGRFTISRDISKSTLSLQMNSLRAEDTAVYYCAKEGTNMVRGVVMEDNGMDVWGQGTTVTVSA
# VL: DIQMTQSPSSVSASVGDRVTITCRASQGISDYLAWYQQKPGKAPKLLIYAASSLQSGVPSRFSGRGSGTDFTLTISTLQPEDFATYYCQQANSFPLTFGGGTKVDIKR
# notes: Human IgG4 Fc (prefix H4H)
# B8: H4H2098P (antibody, human IgG4, V domains shown)
# VH: QVQLVESGGGVVQPGRSLRLSCAASGFTFSSFGMHWVRQAPGKGLEWVAVIWYVEINKYHADSVKGRFTISRDDSKNTVYLQMNSLRAEDTAVYYCARDWNDGDYGMDVWGQGTTVTVSS
# VL: DIQLTQSPSFLSASVGDRVTITCWASQGISSFLAWYQQKAGKAPRLLIYAASTLQTGVPSRFSGSGSGTEFTLTISSLQPGDFATYHCQQLNSYPYTFGQGTKLEIKR
# notes: Human IgG4 Fc (prefix H4H)
# B9: H4H1821N (antibody, human IgG4, V domains shown)
# VH: EVQLVESGGGLVQPGRSLRLSCAASGFTFDDYAMHWVRQAPGKGLEWVSSISWNSGSIGYADSVKGRFTISRDNAKNSLYLQMNSLKPEDTALYYCTKDTDYGDYLDAFDIWGQGTMVAVAS
# VL: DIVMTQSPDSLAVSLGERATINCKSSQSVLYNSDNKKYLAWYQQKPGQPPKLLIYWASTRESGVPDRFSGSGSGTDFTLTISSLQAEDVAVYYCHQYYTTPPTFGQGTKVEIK
# notes: Human IgG4 Fc (prefix H4H); In the H/D exchange experiment it was covalently attached to NHS agarose beads
# B10: H4H2151P (antibody, V domains shown)
# VH: QVQLVESGGGVVQPGRSLRLSCAASGFTFSNYGMHWVRQAPGKGLEWVARIWYDGSNKYYADSVKGRFTISRDSSKNTLYLQMNSLRAEDTAVYYCAREGEQNLDYYPLDVWGQGTTVTVSS
# VL: DIVMTQSPSSLSASVGDRVTITCRASQDIRNDLGWYQQKPGKAPKLLIYAASSLQTGVPSRFSGSVSGTDFTLTISSLQPEDFATYYCLQDYTYPLTFGGGTKVEIK
# notes: Fully human, human IgG4 Fc (H4H prefix)
# B11: H4H2290P (antibody, V domains shown)
# VH: EVQLLESGGGLVQPGGSLRLSCVASGFTFSSFAMSWVRQAPGKGLEWVSVISGSGGSTNHADSVRGRFTISRDNSLNTVYLQMHSLRAEDTALYYCVKAETSSSYFYYGMDVWGQGTTVTVSS
# VL: DIQLTQSPSFLSASVGDRVTITCWASQDISSYLAWYQQKPGKVPNLLIYGASSLQPGVPSRFSGSGSGTEFTLTISSLQPEDFATYYCQQLNNYPTFGGGTKLEIKR
# notes: as for B10
# B12: H4H2153P (antibody, V domains shown)
# VH: QVQLVQSGAEVKKPGASVKVSCKASGYTFTRYGISWVRQAPGLGLEWMGWISAYDGYTNFAQKFQGRFTMTTDTSTNTAYMELRGLRSDDTAVYYCAREEEDAAFDIWGQGTMVTVSS
# VL: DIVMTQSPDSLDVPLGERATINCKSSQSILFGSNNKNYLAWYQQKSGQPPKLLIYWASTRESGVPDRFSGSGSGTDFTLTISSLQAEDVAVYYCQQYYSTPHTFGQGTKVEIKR
# notes: as for B10
# B13: H4H2148P (antibody, V domains shown)
# VH: EVQLVESGGGLVHPGRSLRLSCAASGFTFDDYAMHWVRQSPGKGLEWVSGISWNSVIKHSTDSVRGRFTISRDNAKNSLYLQMNSLKPEDTAFYYCAKDEDDWNYLDYWGQGTLVTVSS
# VL: DIQMTQSPSSVSASVGDRVTITCRASQDINSWLAWYQQKPGKAPKLLIYTSSNLQSGVPSRFSGSGSGTDFTLTISSLQPEDFATYYCQQSDSFPFTFGPGTKVDIKR
# notes: as for B10
# B14: H4H2154P (antibody, V domains shown)
# VH: QVQLQESGPGLINPSQTLSVTCTVSGGSISSGGYYWTWIRQHPGKGLEWIGYISYSGNTNYNPSLKSRVTISVDTAKNQFSLKLSSVTAADTAVYFCARDSDVDTAMVDGIDIWGQGTMVTVSS
# VL: B13 VL with N30S, K42R, S51A, N53S, Y87F, S91A, D92N
# notes: as for B10
# Biological target: T1, ErbB3-mFc
# Assay: blocking ELISA: antibody (0-50 nM) + 50 pM ErbB3-mFc, binding to coated neuregulin1b
# Description: To further characterize anti-hErbB3 mAbs of the present invention, their ability to block ligand binding was examined via ELISA. […] Plates were washed and non-sequestered (plate bound) ErbB3 was detected with an anti-Fc poly conjugated with horseradish peroxidase (HRP). Plates were developed with TMB (3,3′,5,5′-tetramethylbenzidine) and neutralized with sulfuric acid before reading absorbance at 450 nm on a Victor X5 plate reader. Data analysis used a sigmoidal dose-response model within Prism™ software. […] Maximal blocking for each antibody was calculated by taking the difference in absorbance from zero to 50 nM antibody on the inhibition curve, divided by the difference in absorbance from 50 pM to zero ErbB3 on the dose curve.
IC50 [nM],Maximal Blocking (%),Binder
0.0873,95,B1
0.02,99,B2
0.0594,100,B3
0.09,92,B4
0.186,90,B5
0.0497,92,B6
0.116,91,B7
0.135,95,B8
0.018,99,B9

# Biological target: T2, hErbB3.mFc (soluble dimeric human ErbB3 …)
# Assay: SPR (Biacore), 25 C, mAb capture format
# Method: (§1) (Tables 2-4). Measurements were conducted on a Biacore 2000 or T100 instrument. […] Kinetic association (kₐ) and dissociation (kd) rate constants were determined by processing and fitting the data to a 1:1 binding model using Scrubber 2.0 curve fitting software.
Kd [nM],T½ [h],koff [s⁻¹],kon [M⁻¹ s⁻¹],Binder
0.000213,186,9.52e-07,4.48e+06,B10
0.014,15.8,1.13e-05,800000,B11
0.000337,143,1.24e-06,3.67e+06,B12
0.000295,102,1.74e-06,5.91e+06,B13
0.0003,182,9.77e-07,3.25e+06,B14

# Biological target: hErbB3.mmh (soluble monomeric human ErbB3 extracellular domain with C-terminal myc-myc-hexahistidine tag) (human, UniProt P21860 20-642)
# Assay: SPR (Biacore), 25 C, mAb capture format
# Method: as §1
Kd [nM],T½ [h],koff [s⁻¹],kon [M⁻¹ s⁻¹],Binder
0.00942,6.2,2.86e-05,3.04e+06,B10
0.115,2.65,6.72e-05,582000,B11
0.0117,5.18,3.43e-05,2.94e+06,B12
0.00871,5.12,3.47e-05,3.98e+06,B13
0.0176,4.75,3.73e-05,2.13e+06,B14
